The values below come from article PMC5895748.

In this test the target is human Toll-like receptor 5 (hTLR5) (human) (UniProt O60602).
Sequence of UniProt O60602 (O60602 21-858): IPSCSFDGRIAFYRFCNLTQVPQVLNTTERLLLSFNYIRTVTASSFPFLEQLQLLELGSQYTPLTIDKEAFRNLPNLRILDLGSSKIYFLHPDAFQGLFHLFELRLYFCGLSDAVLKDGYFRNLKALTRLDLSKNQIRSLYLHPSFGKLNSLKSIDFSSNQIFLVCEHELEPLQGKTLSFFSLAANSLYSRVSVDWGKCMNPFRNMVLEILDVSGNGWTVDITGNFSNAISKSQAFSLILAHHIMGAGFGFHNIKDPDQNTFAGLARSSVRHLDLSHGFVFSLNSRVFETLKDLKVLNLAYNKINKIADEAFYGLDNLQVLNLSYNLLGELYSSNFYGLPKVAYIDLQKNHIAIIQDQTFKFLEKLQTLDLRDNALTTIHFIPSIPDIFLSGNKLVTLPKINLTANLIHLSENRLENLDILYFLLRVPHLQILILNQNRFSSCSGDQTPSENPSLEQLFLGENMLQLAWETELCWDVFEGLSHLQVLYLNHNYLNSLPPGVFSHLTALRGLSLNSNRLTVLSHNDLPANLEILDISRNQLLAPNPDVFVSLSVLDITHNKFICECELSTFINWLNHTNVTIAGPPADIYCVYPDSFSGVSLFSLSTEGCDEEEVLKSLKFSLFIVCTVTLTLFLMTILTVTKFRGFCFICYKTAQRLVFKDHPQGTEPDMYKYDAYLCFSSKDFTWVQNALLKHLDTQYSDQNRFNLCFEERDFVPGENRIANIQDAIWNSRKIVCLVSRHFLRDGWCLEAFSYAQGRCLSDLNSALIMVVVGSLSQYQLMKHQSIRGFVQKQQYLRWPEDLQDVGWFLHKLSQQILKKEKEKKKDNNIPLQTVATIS
In the case of “Bacillus cereus flagellin BC1658 (BcFlg) (natural protein)”, the EC50 of TLR5 stimulation, HEK293blue-hTLR5 reporter cells (NF-kB-inducible SEAP) was determined as 1.7 pM and the EC50 of TLR5 stimulation, HEK293blue-hTLR5 reporter cells (SEAP); protein incubated at 37 °C for 24 hours before the assay was determined as 1.9 pM.

“BcFlg^cF, T4 lysozyme fused to the C-terminal end of BcFlg” gave an EC50 of TLR5 stimulation, HEK293blue-hTLR5 reporter cells (NF-kB-inducible SEAP) of 2.3 pM and an EC50 of TLR5 stimulation, HEK293blue-hTLR5 reporter cells (SEAP); protein incubated at 37 °C for 24 hours before the assay of 129 pM.

Regarding “BcFlg^nF, T4 lysozyme fused to the N-terminal end of BcFlg”, the EC50 of TLR5 stimulation, HEK293blue-hTLR5 reporter cells (NF-kB-inducible SEAP) was 44.2 pM.

For “Bacillus cereus flagellin BC1659 (natural protein)”, the EC50 of TLR5 stimulation, HEK293blue-hTLR5 reporter cells (NF-kB-inducible SEAP) came to 55.4 pM.

Turning to “BcFlg^mF, T4 lysozyme inserted into BcFlg residues 178-180”, the EC50 of TLR5 stimulation, HEK293blue-hTLR5 reporter cells (NF-kB-inducible SEAP) was 1.4 pM and the EC50 of TLR5 stimulation, HEK293blue-hTLR5 reporter cells (SEAP); protein incubated at 37 °C for 24 hours before the assay came to 2.4 pM.
